Experimental data taken from patent US20220169740A1 (KINDRED BIOSCIENCES, published 2022).

Tests used:
[1] = biological target: T1, human NGF (Sino Biological, Inc.; Catalog No. 11050-HNAC) (human, UniProt P01138 122-241, limits assumed, biotinylated in the Octet assay of Example 3 (sites not given); not biotinylated in the TF1 assay); experiment: BLI (Octet); biotinylated human NGF on streptavidin tips, TrkA-Fc 25 ug/mL; 1:1 fit
T1 construct: also called nerve growth factor; biotinylated NGF
Description: Binding activity of canine, feline, and equine TrkA ECD v2 and v3 fusion polypeptides prepared in Example 2 (SEQ ID NOs: 16, 17, 19, 20, 22, and 23) to commercially-available human NGF was considered. The binding analysis was performed using a biosensor Octet as follows. Briefly, human NGF (Sino Biological, Inc.; Catalog No. 11050-HNAC) was biotinylated. The free unreacted biotin was removed from biotinylated NGF by extensive dialysis. Biotinylated NGF was captured on streptavidin sensor tips. The association of NGF with TrkA-Fc (25 ug/mL) was monitored for 600 seconds. Dissociation was monitored for 600 seconds. A buffer only blank curve was subtracted to correct for any drift. The data were fit to a 1:1 binding model using ForteBio™ data analysis software to determine the kₒₙ, koff, and the Kd. The buffer for dilutions and all binding steps was: 20 mM phosphate, 150 mM NaCl, pH 7.2.
FIG. 1 and FIG. 2 are sensorgrams showing that canine, feline, and equine TrkA ECD v2 and v3 fusion polypeptides all bind NGF. […] Irrelevant canine and feline IgG-Fc fusion proteins were used as a negative control.

[2] = biological target: T1, human NGF (Sino Biological, Inc.; …); experiment: cell-based or functional assay

T1 sequence (P01138 122-241 limits assumed): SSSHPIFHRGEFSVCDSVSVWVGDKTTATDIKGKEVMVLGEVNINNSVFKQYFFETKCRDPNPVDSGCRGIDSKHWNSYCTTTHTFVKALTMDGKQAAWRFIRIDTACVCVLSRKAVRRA

B1: Equine TrkA ECD v2-variant equine IgG2 Fc (Protein A+, C1q-, CD16-) (Fc fusion)
chain: VSFPASVHLQTAVEQHHWCIPFSVDGQPAPTLRWLFNGSVLNETSFIFTEFLESAANETMRHGCLRLNQPTHVNNGNYTLLATNPYGQDSASVMVAFMDNPFEFNPEDPIPVSFSPVDTNSTSRDPPCVLSAEGVIPIPSVPKPQCPPYTHSKFLGGPSVFIFPPNPKDTLMISRTPVVTCVVVNLSDQYPDVQFSWYVDNTEVHSAITKQREAQFNSTYRVVSVLPIQHQDWLSGKEFKCSVTNVGVPQPISRAISRGKGPSRVPQVYVLPPHPDELAKSKVSVTCLVKDFYPPDISVEWQSNRWPELEGKYSTTPAQLDGDGSYFLYSKLSLETSRWQQVESFTCAVMHEALHNHYTKTDISESLGK
notes: CHO; also called equine TrkA ECD v2 fusion polypeptide; equine TrkA v2
Kd [1]: ~1 nM | IC50, TF1 cell proliferation assay (CellTiter-Glo luminescence; NGF at 10 ng/ml) [2]: 5.4 nM
